{
  "source": "patent US20220195015A1",
  "about": "(published 2022)",
  "data": [
    {"molecular_target": "SARS-CoV-2 RBD (wild type) (SARS-CoV-2, UniProt P0DTC2 319-539)", "assay": "ELISA on coated RBD", "units": {"EC50": "ng/mL"}, "values": [
      {"binder": "C096 (antibody, V domains shown) VH: EVQLVESGGGLVKPGGSLRLSCVASGFTFRNAWMNWVRQAPGKGLEWVGRIKANSDGGTIDYAEPVQGRFTISREDSRNSLYLQMNSLKTEDTAVYYCTTGPQYDDFGHSYIVDSWGPGTLVTVSS VL: DIVMTQSPLSLPVTLGEPASISCRSSQSLLHSNGFHFLEWYLQKPGQSPQLLIYVGSNRASGVPDRFSGSGSGTDFTLKISRVEAEDVGVYYCMQTLQTPLTFGGGTKVEIK", "EC50": 5.18},
      {"binder": "C044 (antibody, V domains shown) VH: EVQLVESGGGLVQPGGSLRLSCAASGFTFSSYSMNWVRQAPGKGLEWVSYISSSSSTIYYADSVKGRFTISRDNAKNSLYLQMNSLRDEDTAVYYCAREAHDGALTDYGDYLNWFDPWGQGTLVTVSS VL: SYELTQPPSVSVAPGKTARITCGGNNIGSKSVHWYQQKPGQAPVLVIYYDSDRPSGIPERFSGSNSGNTATLTISRVEAGDEADYYCQVWDSSSDHLYWVFGGGTKLTVL", "EC50": 1820},
      {"binder": "C045 (antibody, V domains shown) VH: EVQLVESGGGLVQPGGSLRLSCAASGFTFSTYSMNWVRQAPGKGLEWVSYISSSSSTIHYADSVKGRFTISRDNAKNSLYLQMNSLRDEDTAVYYCAREAHDGALTDYGDYLNWFDPWGQGTLVTVSS VL: SYELTQPPSVSVAPGKTARITCGGTNIGSKNVHWYQQKPGQAPVLVIYYDNDRPSGIPERFSGSNSGNTATLTISRVEAGDEADYYCQVWDTTSDHFYWVFGGGTKLTVL", "EC50": 7},
      {"binder": "C043 (antibody, V domains shown) VH: QLVQSGPEVKKPGTSVKVSCKASGFTFYNSAVQWVRQARGQRLEWVGWIVVGSGNTDYAQKFQERVTMTRDLSTNTAYMEVNSLRSEDTAVYYCAAPYCSGGTCLDGFDIWGQGTMVTVSS VL: EIVLTQSPGTLSLSPGERGTLSCRASQSVRSNYLAWYKQRPGQAPRLLVYGASSRATGIPDRFSGSGSGTDFTLTISRLEPEDFAVYYCQQYGSSPWTFGQGTKVEIK", "EC50": 12.1},
      {"binder": "C099 (antibody, V domains shown) VH: EVQLVESGGGLIQPGGSLRLSCAASGITVSSNYMSWVRQAPGKGLEWVSVMYAGGSTFYADSVKGRFTISRDDSKNTLFLQMNSLRAEDTAIYYCARDLYSSGGTDIWGQGTMVTVSS VL: EIVLTQSPGTLSLSPGERATLSCRASQSIGSSYLAWYQQKPGLAPRLLIYGASRRATGIPDKFSGSGSGADFTLTISRLEPEDFAVYYCQQYGSSPGTFGQGTKVEIK", "EC50": 2.45},
      {"binder": "C098 (antibody, V domains shown) VH: EVQLVESGGGLIQPGGSLRLSCAASGFTVSSNYMSWVRQAPGKGLEWVSVIYSGGSTYYADSVKGRFTISRDNSKNTLYLQMNSLRAEDTAVYYCARDLYSSGGTDIWGQGTMVTVSS VL: not shown", "note": "[C098, listing 1 of 2 here]", "EC50": 7.7},
      {"binder": "C097 (antibody, V domains shown) VH: QVQLQESGPGLVKPSQTLSLTCTVSGGSISSGPYYWSWIRQHPGKGLEWIGYIYYSGSTYYNPSLKSRVTISVDTSKKQFSLNLNSVTAADTAVYYCARVWQYYDSTGSFDYWGQGTLVTVSS VL: DIVMTQSPLSLPVTPGEPASISCRSSRGLLHSNGYNYLDWYLQKPGQSPQLLIYLGSNRASGVPDRFSGSGSVTDFTLNISRVEAEDVGVYYCMQALQTPFTFGPGTKVDIK", "note": "[C097, listing 1 of 2 here]", "EC50": 3.45},
      {"binder": "C092 (antibody, V domains shown) VH: QVQLVQSGAEVKKPGSSVKVSCKASGGSFTNHFISWVRQAPGQGLEWMGRIIPILGTANYAQNFQGRVMMTADKSTSTAYMELSSLRSEDTAVYYCARDSGYSGYGSTYYMDVWGKGTTVTVSS VL: QSVLTQPPSVSGAPGQRVTISCTGSNSNIGAGYDVHWYQQLPGAAPKLLIYGNNNRPSGVPDRFSGSKSDTSASLAITGLQVEDEADYYCQSYDSSLSDSVFGSGTKVTVL", "EC50": 7.07},
      {"binder": "C094 (antibody, V domains shown) VH: QVQLQESGPGLVKPSETLSLTCNVSGVSISTDYWSWIRQPPGKGLEWIGYIYYSGNTKDYNPSLKSRVTISVDTSKNQFSLMLSSVTAADTAVYYCARHYDILTSLSWFDPWGQGTLVTVSS VL: QSVLTQPPSVSAAPGQKVTISCSITNSNLGNIYVSWYQQLPGTAPKLLIYGNNKRPSGIPDRFSGSKSGTSATLGITGLQTGDEAHYYCGTWDSSLSANWVFGGGTKLTVL", "EC50": 1.67},
      {"binder": "C035 (antibody, V domains shown) VH: EVQLVESGGGLVQPGGSLRLSCAASGFIFSSYWMTWVRQAPGKGLEWVASIKYNGNERNYVDSVKGRFTISRDNARNSLFLQLNNLGAEDTAVYYCARQPESTIWYYFDYWGQGTLVTVSS VL: SYELTQPPSVSVSPGQTARVTCSGHALPDQYTYWYQQRPGRAPVLVIYVNNQRPSGIPDRFSATTSGTTVTLTISGVQAEDEADYYCQSADSSGSYVVFGGGTKLTVL", "EC50": 15.2},
      {"binder": "C522 (antibody, V domains shown) VH: EVQLVESGGGLIQPGGSLRLSCAASEFIVSRNYMSWVRQAPGKGLEWVSVIYSGGSTFYADSVKGRFTISRDESKNTLYLQMNSLRAEDTAIYYCARDRGGGILDYWGQGTLVTVS VL: DIQMTQSPSSLSASVGDRVTITCQASQDINIFLNWYQQKPGKAPKLLIYDASSLETGVPSRFSGSGSGTDFTFTISSLQPEDFATYYCQQYGNLPKYTFGQGTKLEIK", "EC50": 0.93},
      {"binder": "C095 (antibody, V domains shown) VH: VQLVEAGGGVVQPGRSLRLSCAASGLAFSIYGMHWVRQAPGKGLEWVAIVAQDGSKKYYADSVKGRFTISRDNSKNTLYLEMNSLRTEDTAVYYCVKEGRPSDTVVVVAFDYWGQGSLVTVSS VL: DIQLTQSPSSLSASVGDRVTITCRASQSISNYLNWYQQKPGKAPKVIIYAASSLQSGVPSRFSGSGSGTDFTLTISSLQPEDFATYYCQQSHSIPRTFGQGTKVEIK", "note": "[C095, listing 1 of 2 here]", "EC50": 1.1},
      {"binder": "C521 (antibody, V domains shown) VH: EVQLVESGGGLVRPGGSLTLSCVASGFTVGSNFMSWVRQAPGKGLEWVSLIYNSGGTHYADSVKGRFTISRDRSKNTLYLQMNSLRAEDTAIYYCANHGYYYYMDVWGKGTTVTVS VL: QSALTQPASVSGSPGQSITISCTGTGSDIGAYNYVSWHQHHPGKAPKLIIYDVSNRPSGVSNRFSGSKSGNTASLTISGLQAEDEADYYCTSYTNTTTPWVFGGGTKVTVL", "EC50": 6.9}
    ]},
    {"molecular_target": "SARS-CoV-2 spike protein on HIV-1 pseudotyped particles (SARS-CoV-2, UniProt P0DTC2 14-1254)", "assay": "cell-based or functional assay", "units": {"Neutralization IC50": "ng/mL", "Neutralization IC90": "ng/mL"}, "values": [
      {"binder": "C098 (antibody, V domains shown) VH: EVQLVESGGGLIQPGGSLRLSCAASGFTVSSNYMSWVRQAPGKGLEWVSVIYSGGSTYYADSVKGRFTISRDNSKNTLYLQMNSLRAEDTAVYYCARDLYSSGGTDIWGQGTMVTVSS VL: not shown", "note": "[C098, listing 2 of 2 here]", "Neutralization IC50": 479, "Neutralization IC90": 4250},
      {"binder": "C097 (antibody, V domains shown) VH: QVQLQESGPGLVKPSQTLSLTCTVSGGSISSGPYYWSWIRQHPGKGLEWIGYIYYSGSTYYNPSLKSRVTISVDTSKKQFSLNLNSVTAADTAVYYCARVWQYYDSTGSFDYWGQGTLVTVSS VL: DIVMTQSPLSLPVTPGEPASISCRSSRGLLHSNGYNYLDWYLQKPGQSPQLLIYLGSNRASGVPDRFSGSGSVTDFTLNISRVEAEDVGVYYCMQALQTPFTFGPGTKVDIK", "note": "[C097, listing 2 of 2 here]", "Neutralization IC50": 9.6, "Neutralization IC90": 31.1},
      {"binder": "C095 (antibody, V domains shown) VH: VQLVEAGGGVVQPGRSLRLSCAASGLAFSIYGMHWVRQAPGKGLEWVAIVAQDGSKKYYADSVKGRFTISRDNSKNTLYLEMNSLRTEDTAVYYCVKEGRPSDTVVVVAFDYWGQGSLVTVSS VL: DIQLTQSPSSLSASVGDRVTITCRASQSISNYLNWYQQKPGKAPKVIIYAASSLQSGVPSRFSGSGSGTDFTLTISSLQPEDFATYYCQQSHSIPRTFGQGTKVEIK", "note": "[C095, listing 2 of 2 here]", "Neutralization IC50": 11.3, "Neutralization IC90": 52.6}
    ]}
  ]
}
